Tests used:
PARP activity = settings: various cell lines, DNA damage by hydrogen peroxide, cited from earlier work
TIM-3 = target: T1, TIM-3 (Homo sapiens, UniProt Q8TDQ0); assay: TIM-3 receptor occupancy on circulating CD14+ monocytes by flow cytometry; type: in vivo
T1 construct: endogenous in cells; host or cells: circulating CD14+ monocytes in patients' whole blood
Experimental: TIM-3 receptor occupancy (RO) by TSR-022 on circulating CD14^+ monocytes was measured by flow cytometry. Briefly, whole blood samples from patients treated with TSR-022 were stained with anti-CD14, a non-competing anti-TIM-3 antibody (indicating total TIM-3) and a competing anti-TIM-3 antibody (indicating unbound or free TIM-3). TIM-3 occupancy by infused TSR-022 was estimated as the ratio of free TIM-3 on CD14+ cells to the total TIM-3 on CD14+ cells. A decrease in the ratio indicates an increase in TSR-022 bound TIM-3 receptor. To measure binding in the RO assay, whole blood was collected from patients at baseline (Day 1 predose), 48 hours following the first dose (Day 3) and prior to the second dose (Day 15 predose) for the Q2W schedule. […] Samples for occupancy measurement on the Q3W schedule were collected as follows: Day 1 predose, Day 5, Day 15 and Day 22. Ex vivo TSR-022 saturated healthy donor samples (“sat”) as well as controls lacking detection antibodies (“Bkgd”) were included as controls.
FIGS. 7A-7C respectively show receptor occupancy studies of the anti-TIM-3 antibody (TSR-022) administered at doses of 1 mg/kg (FIG. 7A), 3 mg/kg (FIG. 7B), and 10 mg/kg (FIG. 7C) every two weeks (Q2W). All samples were pre-dose, with occupancy measured after a single dose on day 1. The occupancy ratio (free TIM-3:total TIM-3) is determined at various time points (for example, timepoints can include day 1, day 3, day 15, day 22, and day 29). The receptor occupancy is maximal on day 3 across doses of TSR-022.

[1] = Phase 1 study, serum pharmacokinetics after first dose; type: in vivo; settings: patients, first dose 0.03-10 mg/kg, monitored for two weeks, FIG. 6A
Excerpt: (§1) This example describes a multicenter, open-label, first-in-human Phase 1 study evaluating a TIM-3 binding agent (an anti-TIM-3 antibody), in patients with tumors. Specifically the dosage effects in patients with advanced solid tumors treated with a particular TIM-3 binding agent. A TIM-3 binding agent (TSR-022) as described in the present study comprises a humanized monoclonal anti-TIM-3 antibody comprising a heavy chain whose amino acid sequence comprises SEQ ID NO: 3 and a light chain whose amino acid sequence comprises SEQ ID NO:4 are evaluated. This anti-TIM-3 antibody utilizes a human IGHG4*01 heavy chain gene, and a human IGKC*01 kappa light chain gene, as scaffolds. Further, there is a single Ser to Pro point mutation in the hinge region of the IgG4 heavy chain at the canonical S228 position.
The study comprises several parts: dose escalation and cohort expansion. Part 1a of the study (dose escalation) is intended, inter alia, to evaluate the safety, PK, and PDy profile, tolerability and anti-cancer effect of the anti-TIM-3 antibody. […]
After patients received the first dose of TSR-022 at various levels (0.03-10 mg/kg), the TSR-022 concentration in serum was monitored for two weeks and the pharmacokinetic (PK) behaviors were characterized.

[2] = system: advanced or metastatic solid tumors; assay: Phase 1 dose escalation, best tumor response; type: in vivo, human
Excerpt: as §1
Patients were included with histologically or cytologically proven advanced (unresectable) or metastatic solid tumor and who had disease progression after treatment with available therapies that are known to confer clinical benefit or who are intolerant to other known treatment(s).
The study comprises several parts: dose escalation and cohort expansion. Part 1a of the study (dose escalation) is intended, inter alia, to evaluate the safety, PK, and PDy profile, tolerability and anti-cancer effect of the anti-TIM-3 antibody. A modified 3+3 design was used for dose escalation at 0.03 mg/kg, 0.1 mg/kg, 0.3 mg/kg, 1.0 mg/kg, 3 mg/kg, and 10 mg/kg and higher every 2 weeks (Q2W) with the dose of the TIM-3 antibody not to exceed 20 mg/kg. […]
The best response observed was also evaluated in efficacy evaluable patients (e.g., patients who received at least two doses and either had at least one post-baseline assessment or had discontinued treatment due to clinical progression prior to post-baseline tumor assessment. Stable disease (5/25 patients) and partial response (1/25 patients at 10 mg/kg) were observed as the best response in patients with rectal, thyroid, neuroendocrine, or head and neck cancer, or with soft tissue sarcoma.

[3] = Phase 1 dose escalation, safety and tolerability; type: in vivo
Experimental: The study comprises several parts: dose escalation and cohort expansion. Part 1a of the study (dose escalation) is intended, inter alia, to evaluate the safety, PK, and PDy profile, tolerability and anti-cancer effect of the anti-TIM-3 antibody. […] Part 1a could also comprise the testing of a “flat” dose, or a specific fixed number of milligrams of antibody (as opposed to the weight based dosing mg/kg). Flat doses could range from 200 mg to 1500 mg of anti-TIM-3 antibody. Part 1b of the study (combination with PD1 dose escalation cohorts) is intended, inter alia, to evaluate the safety, PK, and PDy profile, tolerability and anti-cancer effect of the anti-TIM-3 antibody in combination with an anti-PD-1 antibody wherein the anti-TIM-3 antibody is administered as a dose escalation. […] The anti-PD-1 antibody can be dosed at an approved dose and schedule for a marketed agent and on a weight basis at a dose of 3 or 10 mg/kg Q2W or Q3W or on a flat dose basis of 500 mg antibody Q2W or Q3W by using a modified 3+3 design.
Primary endpoints include determining the safety and tolerability of TSR-022 by Common Terminology Criteria for Adverse Events (CTCAE v4) and to determine the recommended phase 2 dose (RP2D) and schedule for monotherapy and combination with an anti-PD-1 antibody. […]

| Molecule | IC50 (PARP activity; read-out: IC50, PARP activity in cells) [nM] | IC90 (PARP activity; read-out: inhibitory concentration at 90% of control (IC90), PARP activity in cells) [nM] | day through which maximal occupancy is maintained (TIM-3; 3 mg/kg, single dose on day 1, FIG. 7B) [days] | maintenance of maximal occupancy (TIM-3; 10 mg/kg, through the days of available data, versus 3 mg/kg, FIG. 7C) | receptor occupancy compared between regimens (TIM-3; 100 mg Q3W versus 3 mg/kg Q2W) | target coverage in the periphery (receptor occupancy) (TIM-3; 100 mg flat dose Q3W, single dose on day 1, FIG. 10) | receptor occupancy (RO) (TIM-3; 300 mg flat dose TSR-022 in combination with 500 mg flat dose TSR-042, FIG. 11) | mean occupancy ratio (free TIM-3:total TIM-3) (TIM-3; 1, 3, 10 mg/kg and flat doses of 100, 300, 1200 mg, over a range of days, FIG. 12) | receptor occupancy on peripheral monocytes versus exposure (TIM-3; patients, whole blood, FIG. 6B) | day on which receptor occupancy is maximal (TIM-3; single dose on day 1, across doses 1, 3, 10 mg/kg, FIGS. 7A-7C) [days] | PK behavior, serum concentration versus time [1] | stable disease as best response ([2]; efficacy evaluable patients, monotherapy Part 1a, 0.03-10 mg/kg Q2W) | partial response as best response ([2]; efficacy evaluable patients, monotherapy, at 10 mg/kg) | tumor reduction ([2]; one patient with metastatic leiomyosarcoma, 3 doses at 10 mg/kg, pending confirmatory imaging) [%] | MTD ([3]; dose escalation continued to 1.0 mg/kg Q2W) | tolerability ([3]; monotherapy, patients) |
| --- | --- | --- | --- | --- | --- | --- | --- | --- | --- | --- | --- | --- | --- | --- | --- | --- |
| NC(=O)c1cccc2cn(-c3ccc([C@@H]4CCCNC4)cc3)nc12 [Niraparib, (3S)-3-[4-{7-(aminocarbonyl)-2H-indazol-2-yl}phenyl]piperidine] | ~4 | ~50 |  |  |  |  |  |  |  |  |  |  |  |  |  |  |
| TSR-022: humanized monoclonal anti-TIM-3 IgG4 antibody, heavy chain SEQ ID NO: 3, light chain SEQ ID NO: 4, S228 Ser to Pro hinge mutation |  |  | ≥ 29 | comparable results are obtained | comparable to 3 mg/kg Q2W | achieved at 100 mg for the duration of the dosing interval | high RO can be maintained over the measured time period | high occupancy ratios | correlate with TSR-022 exposure | 3 | linear PK behavior | 5/25 | 1/25 | 32 | a MTD has not yet been identified | well-tolerated across multiple dose levels |
